{"source": "patent US20230104769A1", "about": "(MABWELL SHANGHAI BIOSCIENCE, published 2023)", "binders": {"B1": {"name": "h317 variant antibody, heavy chain D33S (antibody, V domains shown)", "VH": "EVQLVESGGGLVKPGGSLRLSCAASGFTFSSYSMSWVRQAPGKGLEWVATISGGGSYTYYPDSVKGRFTISRDNAKNSLYLQMNSLRAEDTAVYYCASPDSSGVAYWGQGTLVTVSS", "VL": "DIVMTQSPLSLPVTPGEPASITCKASQDVETVVAWYLQKPGQSPRLLIYWASTRHTGVPDRFSGSGSGTDFTLKISRVEAEDVGVYYCQQYSRYPWTFGQGTKL", "notes": "Variant of h317"}, "B2": {"name": "h317 variant antibody, light chain K24R, T56S and S92N with heavy chain D33S and G54S (antibody, V domains shown)", "VH": "B1 VH with G54S", "VL": "B1 VL with K24R, T56S, S92N", "notes": "Variant of h317; also called L- 24R(CDR1) 56S(CDR2) 92N(CDR3); H- 33S(CDR1) 54S(CDR2)"}, "B3": {"name": "h317 variant antibody, light chain S92N (antibody, V domains shown)", "VH": "B1 VH with S33D", "VL": "B1 VL with S92N", "notes": "Variant of h317"}, "B4": {"name": "h317 variant antibody, light chain R93N (antibody, V domains shown)", "VH": "B1 VH with S33D", "VL": "B1 VL with R93N", "notes": "Variant of h317"}, "B5": {"name": "h317 variant antibody, heavy chain D100E (antibody, V domains shown)", "VH": "B1 VH with S33D, D100E", "VL": "B1 VL", "notes": "Variant of h317"}, "B6": {"name": "h317 variant antibody, light chain R93S (antibody, V domains shown)", "VH": "B1 VH with S33D", "VL": "B1 VL with R93S", "notes": "Variant of h317"}, "B7": {"name": "h317 variant antibody, light chain W50A (antibody, V domains shown)", "VH": "B1 VH with S33D", "VL": "B1 VL with W50A", "notes": "Variant of h317"}, "B8": {"name": "h317 variant antibody, light chain K24R, T56S and S92N (antibody, V domains shown)", "VH": "B1 VH with S33D", "VL": "B1 VL with K24R, T56S, S92N", "notes": "Variant of h317; also called 24R(CDR1) 56S(CDR2) 92N(CDR3)"}, "B9": {"name": "h317 variant antibody, light chain E30S (antibody, V domains shown)", "VH": "B1 VH with S33D", "VL": "B1 VL with E30S", "notes": "Variant of h317"}, "B10": {"name": "h317 variant antibody, light chain W96Y (antibody, V domains shown)", "VH": "B1 VH with S33D", "VL": "B1 VL with W96Y", "notes": "Variant of h317"}, "B11": {"name": "h317 variant antibody, light chain K24R, T56S and S92N with heavy chain G54S and Y59A (antibody, V domains shown)", "VH": "B1 VH with S33D, G54S, Y59A", "VL": "B1 VL with K24R, T56S, S92N", "notes": "Variant of h317; also called L- 24R(CDR1) 56S(CDR2) 92N(CDR3); H- 54S(CDR2) 59A(CDR2)"}, "B12": {"name": "h317 variant antibody, heavy chain S56G (antibody, V domains shown)", "VH": "B1 VH with S33D, S56G", "VL": "B1 VL", "notes": "Variant of h317"}, "B13": {"name": "h317 variant antibody, light chain H55A (antibody, V domains shown)", "VH": "B1 VH with S33D", "VL": "B1 VL with H55A", "notes": "Variant of h317"}, "B14": {"name": "h317 variant antibody, heavy chain S31D (antibody, V domains shown)", "VH": "B1 VH with S31D, S33D", "VL": "B1 VL", "notes": "Variant of h317"}, "B15": {"name": "h317 variant antibody, heavy chain D33S and Y59A (antibody, V domains shown)", "VH": "B1 VH with Y59A", "VL": "B1 VL", "notes": "Variant of h317; also called 33S(CDRH 59A(CDR2))"}, "B16": {"name": "h317 variant antibody, heavy chain D100Y (antibody, V domains shown)", "VH": "B1 VH with S33D, D100Y", "VL": "B1 VL", "notes": "Variant of h317"}, "B17": {"name": "h317 variant antibody, heavy chain S52W (antibody, V domains shown)", "VH": "B1 VH with S33D, S52W", "VL": "B1 VL", "notes": "Variant of h317"}, "B18": {"name": "h317 variant antibody, light chain K24R and S92N (antibody, V domains shown)", "VH": "B1 VH with S33D", "VL": "B1 VL with K24R, S92N", "notes": "Variant of h317; also called 24R(CDR1) 92N(CDR3)"}, "B19": {"name": "h317 variant antibody, heavy chain G55S (antibody, V domains shown)", "VH": "B1 VH with S33D, G55S", "VL": "B1 VL", "notes": "Variant of h317"}, "B20": {"name": "h317 variant antibody, light chain T56S and S92N (antibody, V domains shown)", "VH": "B1 VH with S33D", "VL": "B1 VL with T56S, S92N", "notes": "Variant of h317; also called 56S(CDR2) 92N(CDR3)"}, "B21": {"name": "h317 variant antibody, heavy chain Y59A (antibody, V domains shown)", "VH": "B1 VH with S33D, Y59A", "VL": "B1 VL", "notes": "Variant of h317"}, "B22": {"name": "h317 variant antibody, light chain V32Y (antibody, V domains shown)", "VH": "B1 VH with S33D", "VL": "B1 VL with V32Y", "notes": "Variant of h317"}, "B23": {"name": "h317 variant antibody, heavy chain G53Y (antibody, V domains shown)", "VH": "B1 VH with S33D, G53Y", "VL": "B1 VL", "notes": "Variant of h317"}, "B24": {"name": "h317 variant antibody, heavy chain Y32A (antibody, V domains shown)", "VH": "B1 VH with Y32A, S33D", "VL": "B1 VL", "notes": "Variant of h317"}, "B25": {"name": "h317 variant antibody, light chain H55Q (antibody, V domains shown)", "VH": "B1 VH with S33D", "VL": "B1 VL with H55Q", "notes": "Variant of h317"}, "B26": {"name": "h317 variant antibody, light chain W50G (antibody, V domains shown)", "VH": "B1 VH with S33D", "VL": "B1 VL with W50G", "notes": "Variant of h317"}, "B27": {"name": "h317 variant antibody, light chain K24R and Y94F (antibody, V domains shown)", "VH": "B1 VH with S33D", "VL": "B1 VL with K24R, Y94F", "notes": "Variant of h317; also called 24R(CDR1) 94F(CDR3)"}, "B28": {"name": "h317 variant antibody, heavy chain D33Y (antibody, V domains shown)", "VH": "B1 VH with S33Y", "VL": "B1 VL", "notes": "Variant of h317"}, "B29": {"name": "h317 variant antibody, heavy chain S101A (antibody, V domains shown)", "VH": "B1 VH with S33D, S101A", "VL": "B1 VL", "notes": "Variant of h317"}, "B30": {"name": "h317 variant antibody, heavy chain Y106T (antibody, V domains shown)", "VH": "B1 VH with S33D, Y106T", "VL": "B1 VL", "notes": "Variant of h317; also called YI06T"}, "B31": {"name": "h317 variant antibody, heavy chain G54D (antibody, V domains shown)", "VH": "B1 VH with S33D, G54D", "VL": "B1 VL", "notes": "Variant of h317"}, "B32": {"name": "h317 variant antibody, light chain T56S (antibody, V domains shown)", "VH": "B1 VH with S33D", "VL": "B1 VL with T56S", "notes": "Variant of h317"}, "B33": {"name": "h317 variant antibody, light chain Y91F (antibody, V domains shown)", "VH": "B1 VH with S33D", "VL": "B1 VL with Y91F", "notes": "Variant of h317"}, "B34": {"name": "h317 variant antibody, light chain V32A (antibody, V domains shown)", "VH": "B1 VH with S33D", "VL": "B1 VL with V32A", "notes": "Variant of h317"}, "B35": {"name": "h317 variant antibody, light chain S92D (antibody, V domains shown)", "VH": "B1 VH with S33D", "VL": "B1 VL with S92D", "notes": "Variant of h317"}, "B36": {"name": "h317 variant antibody, heavy chain Y59T (antibody, V domains shown)", "VH": "B1 VH with S33D, Y59T", "VL": "B1 VL", "notes": "Variant of h317"}, "B37": {"name": "h317 variant antibody, heavy chain Y57T (antibody, V domains shown)", "VH": "B1 VH with S33D, Y57T", "VL": "B1 VL", "notes": "Variant of h317"}, "B38": {"name": "h317 variant antibody, light chain W96G (antibody, V domains shown)", "VH": "B1 VH with S33D", "VL": "B1 VL with W96G", "notes": "Variant of h317"}, "B39": {"name": "h317 variant antibody, heavy chain D33S and G54S (antibody, V domains shown)", "VH": "B1 VH with G54S", "VL": "B1 VL", "notes": "Variant of h317; also called 33S(CDR1) 54S(CDR2)"}, "B40": {"name": "h317 variant antibody, light chain Y91A (antibody, V domains shown)", "VH": "B1 VH with S33D", "VL": "B1 VL with Y91A", "notes": "Variant of h317"}, "B41": {"name": "h317 variant antibody, heavy chain Y32N (antibody, V domains shown)", "VH": "B1 VH with Y32N, S33D", "VL": "B1 VL", "notes": "Variant of h317"}, "B42": {"name": "h317 variant antibody, heavy chain G54S (antibody, V domains shown)", "VH": "B1 VH with S33D, G54S", "VL": "B1 VL", "notes": "Variant of h317"}, "B43": {"name": "h317 variant antibody, light chain K24R (antibody, V domains shown)", "VH": "B1 VH with S33D", "VL": "B1 VL with K24R", "notes": "Variant of h317"}, "B44": {"name": "h317 variant antibody, heavy chain G53S (antibody, V domains shown)", "VH": "B1 VH with S33D, G53S", "VL": "B1 VL", "notes": "Variant of h317"}, "B45": {"name": "h317 variant antibody, light chain K24R and T56S (antibody, V domains shown)", "VH": "B1 VH with S33D", "VL": "B1 VL with K24R, T56S", "notes": "Variant of h317; also called 24R(CDR1) 56(2)"}, "B46": {"name": "h317 variant antibody, heavy chain S52K (antibody, V domains shown)", "VH": "B1 VH with S33D, S52K", "VL": "B1 VL", "notes": "Variant of h317"}, "B47": {"name": "h317 variant antibody, heavy chain G54S and Y59A (antibody, V domains shown)", "VH": "B1 VH with S33D, G54S, Y59A", "VL": "B1 VL", "notes": "Variant of h317; also called 54S(CDR2) 59A(CDR2)"}}, "note": "Positions count from the first letter of the chain named. Names and notes keep the numbering of the source."}
{"molecular_target": "T1, recombinant human PD-1 protein (NCBI accession No.: NP_005009.2, 21aa-167aa) (human, UniProt Q15116 21-167)", "T1 construct": "range 21-167; also called recombinant human PD-1 extracellular domain protein; PD-1-ECD", "T1 sequence (Q15116 21-167 limits assumed, form in doubt)": "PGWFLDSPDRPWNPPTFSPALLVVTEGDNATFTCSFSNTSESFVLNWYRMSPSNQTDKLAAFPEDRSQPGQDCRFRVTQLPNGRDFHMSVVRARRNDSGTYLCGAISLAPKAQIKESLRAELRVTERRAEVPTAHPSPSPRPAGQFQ", "assay": "BLI Octet QKe, antibody on the sensor, single 100 nM PD-1", "procedure": "Determination of the binding kinetics: the affinity of the antibody was determined with Octet QKe system from Fortebio using an assay of capturing biotin-labeled antibody with streptavidin. […] Both the binding and dissociating were conducted for 300 s.\nThe comparison of affinity between the variant antibodies and the parent antibody was performed using Octet QKe system supplied by Fortebio.", "units": {"Kd": "nM"}}
{"binder": "B1", "Kd": 2.89}
{"binder": "B2", "Kd": 3.38}
{"binder": "B3", "Kd": 3.49}
{"binder": "B4", "Kd": 36.4}
{"binder": "B5", "Kd": 74.4}
{"binder": "B6", "Kd": 7.94}
{"binder": "B7", "Kd": 12.3}
{"binder": "B8", "Kd": 2.91}
{"binder": "B9", "Kd": 14.2}
{"binder": "B10", "Kd": 412}
{"binder": "B11", "Kd": 2.88}
{"binder": "B12", "Kd": 148}
{"binder": "B13", "Kd": 172}
{"binder": "B14", "Kd": 5.12}
{"binder": "B15", "Kd": 3.96}
{"binder": "B16", "Kd": 8.23}
{"binder": "B17", "Kd": 39.4}
{"binder": "B18", "Kd": 4.17}
{"binder": "B19", "Kd": 9.09}
{"binder": "B20", "Kd": 3.98}
{"binder": "B21", "Kd": 3.29}
{"binder": "B22", "Kd": 9.81}
{"binder": "B23", "Kd": 10.3}
{"binder": "B24", "Kd": 6.83}
{"binder": "B25", "Kd": 14.2}
{"binder": "B26", "Kd": 61.4}
{"binder": "B27", "Kd": 5.32}
{"binder": "B28", "Kd": 236}
{"binder": "B29", "Kd": 16.3}
{"binder": "B30", "Kd": 294}
{"binder": "B31", "Kd": 29.3}
{"binder": "B32", "Kd": 3.02}
{"binder": "B33", "Kd": 47.6}
{"binder": "B34", "Kd": 6.21}
{"binder": "B35", "Kd": 7.52}
{"binder": "B36", "Kd": 18.9}
{"binder": "B37", "Kd": 61.2}
{"binder": "B38", "Kd": 15.3}
{"binder": "B39", "Kd": 3.12}
{"binder": "B40", "Kd": 51.2}
{"binder": "B41", "Kd": 18.1}
{"binder": "B42", "Kd": 1.32}
{"binder": "B43", "Kd": 1.02}
{"binder": "B44", "Kd": 5.53}
{"binder": "B45", "Kd": 3.23}
{"binder": "B46", "Kd": 27.2}
{"binder": "B47", "Kd": 2.68}
